Experimental data from patent publication US12304944.

Legend:
[1] = test system: hFIX R338L (codon-optimized human factor IX carrying the R338L mutation)
[2] = test system: hFIX R338L-2Fc (codon-optimized human factor IX R338L, XIa-cleavable linker, IgG1 Fc, 3xGGGS linker, IgG1 Fc)
hFIX R338L-2Fc (codon-optimized human factor IX R338L, XIa-cleavable linker, IgG1 Fc, 3xGGGS linker, IgG1 Fc), sequence (chain, as listed by the source R338L R338L): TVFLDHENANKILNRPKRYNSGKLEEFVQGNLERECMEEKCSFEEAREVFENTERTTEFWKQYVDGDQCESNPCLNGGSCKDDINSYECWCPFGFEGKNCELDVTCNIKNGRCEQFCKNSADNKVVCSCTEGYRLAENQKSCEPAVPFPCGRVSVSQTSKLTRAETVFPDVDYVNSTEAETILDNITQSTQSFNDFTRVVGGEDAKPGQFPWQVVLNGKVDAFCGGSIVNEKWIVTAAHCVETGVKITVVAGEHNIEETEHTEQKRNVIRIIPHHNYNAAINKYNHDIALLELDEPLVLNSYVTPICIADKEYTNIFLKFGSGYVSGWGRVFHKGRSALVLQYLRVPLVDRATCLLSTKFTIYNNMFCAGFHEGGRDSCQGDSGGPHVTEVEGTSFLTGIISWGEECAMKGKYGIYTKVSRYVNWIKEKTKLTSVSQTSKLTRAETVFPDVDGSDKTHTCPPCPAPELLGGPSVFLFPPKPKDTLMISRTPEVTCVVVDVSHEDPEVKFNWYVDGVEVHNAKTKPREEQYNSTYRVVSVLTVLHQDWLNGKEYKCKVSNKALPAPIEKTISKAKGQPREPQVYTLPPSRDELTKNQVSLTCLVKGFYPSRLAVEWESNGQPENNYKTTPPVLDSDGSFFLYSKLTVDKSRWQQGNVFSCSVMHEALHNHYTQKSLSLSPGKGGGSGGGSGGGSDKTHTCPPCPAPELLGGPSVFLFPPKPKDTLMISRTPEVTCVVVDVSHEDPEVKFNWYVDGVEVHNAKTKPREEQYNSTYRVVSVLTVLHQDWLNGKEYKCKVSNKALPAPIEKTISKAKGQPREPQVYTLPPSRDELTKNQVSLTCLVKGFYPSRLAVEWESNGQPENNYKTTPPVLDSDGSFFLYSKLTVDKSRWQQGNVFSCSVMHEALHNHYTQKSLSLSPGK

hFIX R338L (codon-optimized human factor IX carrying the R338L mutation), sequence (chain, as listed by the source R338L R338L): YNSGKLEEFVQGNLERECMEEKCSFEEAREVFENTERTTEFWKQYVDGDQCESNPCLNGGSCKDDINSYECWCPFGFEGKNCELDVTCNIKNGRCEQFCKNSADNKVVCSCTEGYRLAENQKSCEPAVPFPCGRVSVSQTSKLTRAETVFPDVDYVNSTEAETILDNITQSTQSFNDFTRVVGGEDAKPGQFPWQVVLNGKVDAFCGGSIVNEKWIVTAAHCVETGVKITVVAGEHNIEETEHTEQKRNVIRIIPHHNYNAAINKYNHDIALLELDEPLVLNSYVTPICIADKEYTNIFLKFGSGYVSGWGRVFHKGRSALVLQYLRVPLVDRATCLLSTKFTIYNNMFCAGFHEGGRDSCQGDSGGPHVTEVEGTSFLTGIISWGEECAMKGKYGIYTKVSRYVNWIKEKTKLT

## activated factor XI (XIa)
[1]
  cleavage by XIa, western blot of conditioned media treated or not with XIa: Only low levels of partial XIa cleavage of media derived unpurified hFIX could be observed
[2]
  cleavage by XIa, western blot of conditioned media treated or not with XIa: Only low levels of partial XIa cleavage of media derived unpurified hFIX could be observed
  processing by XIa in vitro: its translated protein was efficiently processed by XIa
